Measurements published in US20020157126A1 (published 2002).
Blank lines part the entries; values can stand above or below the molecule they belong to.

How the values were obtained:
[1] = target: T1, myostatin mature C-terminal dimer (purified from conditioned medium of CHO cells) (UniProt O08689 268-376, limits assumed, radio-iodinated (chloramine T method) when used as the labeled ligand); experiment: inhibition of labeled myostatin binding to Act RIIB-transfected COS-7 cells, 4 °C; reference is the Ki of follistatin
T1 construct: mature; also called GDF-8; mature C-terminal peptide
T1 sequence (looked up): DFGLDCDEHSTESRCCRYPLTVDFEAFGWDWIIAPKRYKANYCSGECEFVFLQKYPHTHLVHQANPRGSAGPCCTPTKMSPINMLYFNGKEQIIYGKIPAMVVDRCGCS

[2] = target: GDF-8 receptor (cell surface binding proteins) on L6 myoblasts; experiment: receptor-ligand binding assay with I-125 labeled GDF-8 on myoblast cells
[3] = target: T1, myostatin mature C-terminal dimer …; experiment: inhibition of labeled myostatin binding to Act RIIB-transfected COS-7 cells, 4 °C
Description: Receptor binding. Purified myostatin was radioiodinated using the chloramine T method (Frolik, C. A., Wakefield, L. M., Smith, D. M. & Sporn, M. B. (1984) J Biol Chem 259, 10995-11000). COS-7 cells grown in 6 or 12 well plates were transfected with 1-2 μg pCMV5 or pCMV5/receptor construct using lipofectamine (Gibco, Rockville, Md.). Crosslinking experiments were carried out 2 days post transfection as described (Franzén, P., ten Dijke, P., Ichijo, H., Yamashita, H., Schultz, P., Heldin, C.-H. & Miyazono, K. (1993) Cell 75, 681-692). For quantitative receptor binding assays, cell monolayers were washed twice with PBS containing 1 mg/ml BSA and incubated with labeled myostatin in the presence or absence of various concentrations of unlabeled myostatin, pro peptide, or follistatin at 4° C. Cells were then washed 3 times with the same buffer, lysed in 0.5N NaOH, and counted in a gamma counter. Specific binding was calculated as the difference in bound myostatin between cells transfected with Act RIIB and cells transfected with vector.
The effect of the pro peptide and follistatin in vitro was then studied. Both the myostatin pro peptide and follistatin were capable of blocking the binding of the C-terminal dimer to Act RIIB. […]

fold Ki relative to follistatin [1]: 50 fold
Molecule: myostatin prodomain peptide (purified from CHO cell conditioned medium, HPLC fractions 35-37) (from UniProt O08689 25-267)

Kd [2]: 370 pM
Molecule: recombinant human GDF-8 (rhGDF-8) homodimer (from UniProt O14793 267-374) (ligand)

Ki [3]: ~470 pM
B1: follistatin (other, UniProt P19883-2 30-317, looked up)
chain: GNCWLRQAKNGRCQVLYKTELSKEECCSTGRLSTSWTEEDVNDNTLFKWMIFNGGAPNCIPCKETCENVDCGPGKKCRMNKKNKPRCVCAPDCSNITWKGPVCGLDGKTYRNECALLKARCKEQPELEVQYQGRCKKTCRDVFCPGSSTCVVDQTNNAYCVTCNRICPEPASSEQYLCGNDGVTYSSACHLRKATCLLGRSIGLAYEGKCIKAKSCEDIQCTGGKKCLWDFKVGRGRCSLCDELCPDSKSDEPVCASDNATYASECAMKEAACSSGVLLEVKHSGSCN
